Data taken from patent US20190194322A1 (published 2019).
Changes are numbered by the printed parent chain. Where two headings read alike, the source gives them in different places. Blank lines part the entries; values can stand above or below the binder they belong to.

Assays:
[1] = target: T1, Recombinant human VSIG3 Fc Chimera; experiment: SPR (Biacore, single-cycle kinetics)
T1 chain: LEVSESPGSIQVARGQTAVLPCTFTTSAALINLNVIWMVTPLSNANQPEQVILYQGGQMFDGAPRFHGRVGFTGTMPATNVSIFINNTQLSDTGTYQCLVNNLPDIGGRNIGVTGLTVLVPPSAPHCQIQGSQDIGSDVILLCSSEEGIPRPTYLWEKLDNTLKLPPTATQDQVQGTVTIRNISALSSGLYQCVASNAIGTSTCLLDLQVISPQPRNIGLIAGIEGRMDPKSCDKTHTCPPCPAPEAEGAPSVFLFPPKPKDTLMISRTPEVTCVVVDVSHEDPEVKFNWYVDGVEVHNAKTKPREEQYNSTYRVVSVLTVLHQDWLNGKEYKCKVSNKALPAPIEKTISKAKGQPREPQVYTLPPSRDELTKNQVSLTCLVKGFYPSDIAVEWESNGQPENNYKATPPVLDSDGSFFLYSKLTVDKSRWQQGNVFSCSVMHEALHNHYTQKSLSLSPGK

[2] = target: T1, Recombinant human VSIG3 Fc Chimera; experiment: SPR (Biacore), VSIG3-Fc immobilized, antibody as analyte, single-cycle kinetics
[3] = target: T1, Recombinant human VSIG3 Fc Chimera; experiment: SPR (Biacore, single-cycle kinetics)
[4] = target: T1, Recombinant human VSIG3 Fc Chimera; experiment: SPR (Biacore, single-cycle kinetics)
[5] = target: T2, VSIG3 His-fusion (human, UniProt Q5DX21 23-241, biotinylated (in the co-immunoprecipitation of FIG. 2)); experiment: SPR (Biacore), antibody captured on protein A/G/L, single-cycle kinetics
T2 chain: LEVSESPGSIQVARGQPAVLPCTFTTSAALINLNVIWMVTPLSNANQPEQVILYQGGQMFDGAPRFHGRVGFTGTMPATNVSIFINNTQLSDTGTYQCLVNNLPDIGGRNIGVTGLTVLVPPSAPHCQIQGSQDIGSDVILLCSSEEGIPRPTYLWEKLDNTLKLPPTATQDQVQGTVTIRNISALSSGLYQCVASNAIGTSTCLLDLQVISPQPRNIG

[6] = target: T1, Recombinant human VSIG3 Fc Chimera; experiment: SPR (Biacore, single-cycle kinetics)
[7] = target: T2, VSIG3 His-fusion; experiment: SPR (Biacore), antibody captured on protein A/G/L, single-cycle kinetics

B4: mouse anti-human VSIG3 monoclonal antibody from clone #774213 (antibody, V domains shown)
VH: DVQLVESGGGLVQPGGSRKLSCAASGFTFSSFGMHWVRQAPEKGLEWVAYISSGSTTIYYADTVKGRFTISRDNPKNTLFLQMTSLRSEDTAMYYCTRGSYYRYDLYYAMDYWGQGTSVTVSS
VL: DIQMTQSPSSLSASLGGKVTITCKASQDIHKYVAWYQHKPGKGPRLLIHYTSTLQPGIPSRFSGSGSGSDYSFSISNLEPADIASYYCLQYDNLLFTFGGGTKLEIKR
- Kd [4]: 9.2 nM
- Kd [5]: 19 nM

B5: mouse anti-human VSIG3 monoclonal antibody from clone #774226 (antibody, V domains shown)
VH: DVQLQESGPGLVKPSQSLSLICTVTGYSITSDYAWNWIRQFPGNKLEWMGYISYSGYTTYNPSLKSRISITRDTSKNQFFLQLNSVTTEDTATYYCAISGGSWFAYWGQGTLVTVSA
VL: DIQMTQSPASLSASVGETVNITCRTSENINSYLAWYQQKQGKSPQLLVYNAKTLAEGVPSRFSGSGSGTQFSLKINSLQPEDFGSYYCQHHYGTPPTFGGGTKLEIKR
- Kd [6]: 65 nM
- Kd [7]: 42 nM

B6: mouse anti-human VSIG3 monoclonal antibody from clone #774221 (antibody, V domains shown)
VH: B5 VH with I21T, T58A, T59I, Q78H, I98R
VL: B5 VL with N20T, T25A
- Kd [6]: 21 nM
- Kd [7]: 25 nM

Results, then the binder that gave them:

- Kd [1]: 2.2 nM
B1: mouse anti-human VSIG3 monoclonal antibody from clone #973401 (antibody, V domains shown)
VH: QVQLQQSAAELARPGASVKMSCKASGYTFATYTIHWVKQRPGQGLEWIGYINPSSGYTEYNQKFKDKTTLTADKSSSTAYMQLSSLTSEDSAVYYCARREVYGSGSMDYWGQGTSVTVSS
VL: QIVLTQSPALMSASPGEKVTMTCSASSSVSFMYWYHQKPRSSPKPWIYLTSNLASGVPARFSGSGSGTSYSLTISSMEAEDAATYYCQQWSSNPLTFGAGTKLELKR

- Kd [2]: 2.2 nM
B2: mouse anti-human VSIG3 monoclonal antibody from clone #973428 (antibody, V domains shown)
VH: EVQLVESGGDLVKPGGSLKLSCAASGFTFNSYGMSWVRQTPDKRLEWVAIISSGGSYTYYPDSVKGRFTISRDNAKNTLYLQMSSLKSEDTAMYYCARLSYYYGSSPYAMDYWGQGTSVTISS
VL: DIVLTQSPASLAVSLGQRATISCRASKSVSTSGYSYMHWYQQKPGQSPKLLIYLASNLESGVPARCSGSGSGTDFTLNIHPVEEEDAATYYCQHSRELPYTFGGGTKLEIKR

- Kd [3]: 1.5 nM
B3: mouse anti-human VSIG3 monoclonal antibody from clone #973422 (antibody, V domains shown)
VH: EVKLVESGGGLVQPGGSLKLSCAASGFTFSSYSMSWVRQTPEKRLEWVAYISNGGGSTYYPDTVKGRFTISRDNAKNTLYLQMSSLKSEDTAMYYCARHGDGYYPWFAYWGQGTLVTVSA
VL: QIVLSQSPAILSASPGEKVTMTCRASSSVSYIHWYQQKPGSSPKPWIYATSNLASGVPARFSGSGSGTSYSLTISRVEAEDAATYYCQQWSSNPFTFASGTKLEIKR
